Test results taken from patent US20180036364A1, “METHODS OF TREATING CANCER WITH A PSMA LIGAND-TUBULYSIN COMPOUND” (priority 2015, published 2018).

What was measured:
Format in all cases: in vivo, human
[1] = Phase 1 dose-escalation study: toxicity and safety
Procedure: (§1) This is a Phase 1, multicenter, open-label, non-randomized, dose-escalation oncology study in which EC1169 was dosed three times weekly (TIW), on Weeks 1 and 2 of a 3-week schedule or once weekly dosing (QW) on Weeks 1 and 2 of a 3-week schedule to assess toxicity, safety and preliminary efficacy results in patients with metastatic, castration-resistant prostate cancer (mCRPC) who have progressed on abiraterone and/or enzalutamide, and have been previously treated with a taxane except in cases of contraindication (e.g. poor performance status, age or personal choice). Patients were also dosed with 99mTc-EC0652 and underwent a SPECT/CT scan (or SPECT scan if no SPECT/CT is available) to evaluate EC0652 as an imaging agent to identify PSMA expression.
Prior dose escalation methodology for both schedules was based the continuous reassessment method (CRM), in which 1 patient is assigned to 1 dose level. Subsequent patients were to be enrolled upon the first observation of DLT, at which time enrollment to that dose level would be expanded to a maximum of 6 patients. An alternative dose escalation methodology for both schedules was based upon the standard “3+3” approach, in which a minimum of 3 patients is enrolled to a given dose level. Following the first observation of a DLT, the dose level is then expanded to a maximum of 6 patients.
Patients received an injection of 0.1 mg of PSMA Imaging Agent IIa labeled with 20-25 mCi of technetium-^99m (PSMA Imaging Agent Ma). Patients were subjected to SPECT/CT imaging of the region(s) known to contain target lesion(s) approximately 3-4 hours after injection of PSMA Imaging Agent Ma (^99mTc-EC0652). For sites where SPECT/CT imaging is not available, SPECT imaging alone was carried out.
(§2) II. PSMA-Tubulysin Compound I Administration: PSMA ligand-tubulysin compound I was administered at least 4 days after PSMA Imaging Agent Ma was administered, as an intravenous bolus injection, TIW on Weeks 1 and 2 (i.e., on Days 1, 3, 5, 8, 10, 12 of a 3-week cycle) or once weekly on Weeks 1 and 2 of a 3-week schedule.
DLTs will be based on events occurring in Part A during the first cycle of therapy and the adverse events must be drug related (i.e. definitely, probably or possibly): • ≧Grade 4 hematological toxicity. • Grade 3 neutropenia with fever>38.5° C. and/or infection requiring antibiotic or antifungal treatment. • Grade 3 neutropenia persisting for >5 days. • Grade 3 thrombocytopenia with clinically significant hemorrhage requiring platelet transfusion. • ≧Grade 3 non-hematological toxicity. Grade 3 laboratory abnormalities (e.g., K or Mg) that persist for less than 48 hours are not considered DLTs. • Grade 3 nausea, vomiting lasting more than 72 hours. • A delay of >2 weeks in the scheduled administration of Compound I due to drug-related toxicity.
• Schedule #1: TIW Dosing Schedule: Inability to administer at least 4 of the 6 scheduled doses of PSMA ligand-tubulysin compound I in a cycle due to drug-related toxicity. • Schedule #2: Once Weekly Dosing Schedule: Inability to administer both scheduled doses of PSMA ligand-tubulysin compound I in a cycle due to drug-related toxicity.
PSMA imaging conjugate IIIa and PSMA ligand-tubulysin compound I was administered via IV bolus injection.

[2] = tested on: metastatic, castration-resistant prostate cancer (mCRPC); assay: Phase 1 dose-escalation study: preliminary efficacy; conditions: 21 mCRPC patients
Text: In one aspect, a clinical benefit of the patient to treatment with PSMA ligand-tubulysin compound I can be characterized utilizing Response Evaluation Criteria in Solid Tumors (RECIST) criteria. Illustratively, the criteria have been adapted from the original WHO Handbook (3), taking into account the measurement of the longest diameter for all target lesions: complete response, (CR)—the disappearance of all target lesions; partial response (PR)—at least a 30% decrease in the sum of the longest diameter of target lesions, taking as reference the baseline sum longest diameter; stable disease (SD)—neither sufficient shrinkage to qualify for partial response nor sufficient increase to qualify for progressive disease, taking as reference the smallest sum longest diameter since the treatment started; progressive disease (PD)—at least a 20% increase in the sum of the longest diameter of target lesions, taking as reference the smallest sum longest diameter recorded since the treatment started or the appearance of one or more new lesions. In another aspect overall disease response rate (ORR) is a clinical benefit and is calculated as the percent of patients who achieve a best response of CR or PR. Overall disease control rate (DCR) can be another clinical benefit and is calculated as the percent of patients who achieve a best response of CR, PR, or SD. […]

[3] = Phase 1 dose-escalation study: pharmacokinetics; conditions: mCRPC patients, IV bolus
Procedure: as §1, §2

[4] = 21 mCRPC patients, both schedules

CCCC(=O)OCN(C(=O)[C@@H](NC(=O)[C@H]1CCCCN1C)C(C)CC)[C@H](C[C@@H](OC(C)=O)c1nc(C(=O)N[C@@H](Cc2ccc(O)cc2)C[C@H](C)C(=O)NNC(=O)OCCSSC[C@H](NC(=O)[C@H](CC(=O)O)NC(=O)[C@H](CC(=O)O)NC(=O)Cc2ccc(CNC(=O)NCCCC[C@H](NC(=O)N[C@@H](CCC(=O)O)C(=O)O)C(=O)O)cc2)C(=O)O)cs1)C(C)C (some centres unmarked) [EC1169]
DR Grade 3-4 toxicity or serious adverse events [1, 4]: no | on-study deaths [1, 4]: no | occurrences of dose limiting toxicity ([1]; 21 mCRPC patients, both schedules, cycle 1): no | patients with drug-related (DR) adverse events (AE's) ([1]; 21 patients evaluated for cycle 1 toxicity, both schedules, IV bolus): 9 of 21 | drug-related adverse events occurring in >1 patient ([1]; Schedule #1 (TIW, Weeks 1 and 2 of 3-week cycle), 5 pts): No DRAE occurred in >1 Schedule #1 patient | drug-related adverse events reported in ≧2 patients ([1]; Schedule #2 (once weekly, Weeks 1 and 2 of 3-week cycle), 16 pts): Vomiting and fatigue were the only DRAE's | tolerability ([1]; mCRPC patients): well tolerated | patients with a 50% decrease in PSA [2]: No patient | patients with stable disease lasting more than 4 cycles [2]: 3 patients | AUC [3]: Dose proportionate increases | Cmax [3]: Dose proportionate increases
